Assay results as given in PMC6344286 (Arteriosclerosis, thrombosis, and vascular biology, 2019).

Key:
[1] = biological target: T1, p47phox, recombinant wild type (human), P14598; assay: non-reducing SDS-PAGE of a disulfide-linked complex; details: remark: other sources report otherwise
T1 chain: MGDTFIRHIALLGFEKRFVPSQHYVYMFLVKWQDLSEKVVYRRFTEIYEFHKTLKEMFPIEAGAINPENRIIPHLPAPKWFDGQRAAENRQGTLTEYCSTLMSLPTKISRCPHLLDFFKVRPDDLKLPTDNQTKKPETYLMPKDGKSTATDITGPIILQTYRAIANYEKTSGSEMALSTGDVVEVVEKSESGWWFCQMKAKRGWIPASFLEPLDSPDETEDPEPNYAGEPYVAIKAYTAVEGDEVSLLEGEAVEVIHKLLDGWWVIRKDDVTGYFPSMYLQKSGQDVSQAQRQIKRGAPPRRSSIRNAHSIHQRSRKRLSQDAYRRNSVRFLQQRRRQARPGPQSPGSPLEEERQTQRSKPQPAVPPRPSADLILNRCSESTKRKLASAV

[2] = biological target: Protein disulfide isomerase A1 (PDI), recombinant wild type (human, UniProt P07237 18-508); assay: as above
Chain of Protein disulfide isomerase A1 (PDI), recombinant wild type (P07237 18-508): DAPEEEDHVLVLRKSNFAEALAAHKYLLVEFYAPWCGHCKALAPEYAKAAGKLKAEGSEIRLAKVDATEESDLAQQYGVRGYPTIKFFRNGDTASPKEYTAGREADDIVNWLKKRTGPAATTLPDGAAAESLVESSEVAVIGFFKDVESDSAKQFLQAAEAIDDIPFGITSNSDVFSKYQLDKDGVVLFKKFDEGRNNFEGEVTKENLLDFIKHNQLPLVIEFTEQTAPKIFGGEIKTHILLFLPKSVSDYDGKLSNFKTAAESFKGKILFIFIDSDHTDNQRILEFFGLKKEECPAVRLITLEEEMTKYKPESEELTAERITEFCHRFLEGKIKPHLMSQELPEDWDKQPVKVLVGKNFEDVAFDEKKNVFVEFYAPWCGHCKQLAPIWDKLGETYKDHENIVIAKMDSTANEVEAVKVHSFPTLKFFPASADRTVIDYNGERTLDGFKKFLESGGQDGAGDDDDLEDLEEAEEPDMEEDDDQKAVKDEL

B1: p47phox, recombinant wild type (natural protein, human, UniProt P14598 1-390, looked up)
chain: T1 chain
B1 was tested, and the stoichiometry N [1] was 2 and the binding result [2] was “binds”.
